Key:
human galectin-3 CRD = conditions: fold greater affinity than lactose; cited from earlier work
in vivo [1] = conditions: C57BL/6, mouse, iv, total radioactivity, SUVmean of the liver
Procedure: Both normal control and B16-F10 tumorous mice were iv. administered with 6.8 ± 0.9 MBq [^68Ga]Ga-DOTAGA-LacN(NAP), [^68Ga]Ga-DOTAGA-LacN(NAP)-cRGDfK, or [^68Ga]Ga-DOTAGA-cRGDfK in 120 μL saline through the lateral tail vein.

[2] = test system: subcutaneous B16-F10 tumors; conditions: mouse, in vivo
Procedure: (§1) After in vivo PET imaging (100 min post injection), control and B16-F10 tumor-bearing mice were euthanized with 5% isoflurane (Forane, AbbVie, Budapest, Hungary; OGYI-T-1414/01). For the assessment of the radiotracer uptake, the radioactivity concentration (%ID/g tissue) of the selected organs was measured with a calibrated gamma counter (Perkin-Elmer Packard Cobra, Waltham, MA, USA) (Supplementary Material Table S1).

in vivo [3] = conditions: C57BL/6, mouse, iv, total radioactivity
Procedure: as §1

in vivo [4] = test: in vivo; parameters: species or system C57BL/6 mice; conditions: C57BL/6, mouse, iv, total radioactivity
Excerpt: As part of the ex vivo biodistribution studies—after PET imaging—the sacrifice of the experimental animals occurred followed by the gamma counter-based measurement of the radioactivity of the organs and tissues (Figure 7).
Significance level between the [^68Ga]Ga-DOTAGA-LacN(NAP) and the two other investigated radiotracers: p ≤ 0.01 (*).

[5] = ex vivo biodistribution: bone (femur)
[6] = ex vivo biodistribution: kidney
[7] = ex vivo biodistribution: large intestine
[8] = ex vivo biodistribution: muscle
[9] = ex vivo biodistribution: pancreas
[10] = ex vivo biodistribution: salivary glands
[11] = ex vivo biodistribution: small intestine
[12] = ex vivo biodistribution: spleen
[13] = uptake in subcutaneous B16-F10 tumors

Row | SMILES | SUV at 80 min (in vivo [1]) | B16-F10/Liver ratio (T/L) [2] | B16-F10/Muscle ratio (T/M) [2] | tissue uptake at 100 min (in vivo [3]; ex vivo biodistribution: blood) | tissue uptake at 100 min (in vivo [3]; [5]) | tissue uptake at 100 min (in vivo [3]; ex vivo biodistribution: brain) | tissue uptake at 100 min (in vivo [3]; ex vivo biodistribution: fat) | tissue uptake at 100 min (in vivo [3]; ex vivo biodistribution: heart) | tissue uptake at 100 min (in vivo [3]; [6]) | tissue uptake at 100 min (in vivo [3]; [7]) | tissue uptake at 100 min (in vivo [3]; ex vivo biodistribution: liver) | tissue uptake at 100 min (in vivo [3]; ex vivo biodistribution: lungs) | tissue uptake at 100 min (in vivo [3]; [8]) | tissue uptake at 100 min (in vivo [3]; [9]) | tissue uptake at 100 min (in vivo [3]; [10]) | tissue uptake at 100 min (in vivo [3]; [11]) | tissue uptake at 100 min (in vivo [3]; [12]) | tissue uptake at 100 min (in vivo [3]; [13]) | also measured
1 | CC(=O)N[C@H]1C(O)O[C@H](CO)[C@@H](O[C@@H]2O[C@H](CO)[C@H](O)[C@H](O)[C@H]2O)[C@@H]1O (stereo partly drawn) [N-acetyl-lactosamine] | – | – | – | – | – | – | – | – | – | – | – | – | – | – | – | – | – | – | affinity for the CRD of galectin-3 compared to the lactose molecule (human galectin-3 CRD): 5 fold
2 | N=C(N)NCCC[C@@H]1NC(=O)[C@H](CCCCNC(=S)Nc2ccc(CNC(=O)CCC(C(=O)O)N3CCN(CC(=O)O)CCN(CC(=O)O)CCN(CC(=O)O)CC3)cc2)NC(=O)[C@@H](Cc2ccccc2)NC(=O)[C@H](CC(=O)O)NC(=O)CNC1=O (stereo partly drawn) [[^68Ga]Ga-DOTAGA-cRGDfK, metal not drawn] | 0.59 ± 0.08 SUV | 0.35 ± 0.14 | 4.54 ± 1.24 | 0.37 ± 0.05 %ID/g | 0.26 ± 0.04 %ID/g | 0.03 ± 0.01 %ID/g | 0.19 ± 0.08 %ID/g | 0.26 ± 0.06 %ID/g | 2.43 ± 0.26 %ID/g | 0.55 ± 0.16 %ID/g | 1 ± 0.25 %ID/g | 0.66 ± 0.18 %ID/g | 0.1 ± 0.01 %ID/g | 0.18 ± 0.06 %ID/g | 0.54 ± 0.18 %ID/g | 0.78 ± 0.2 %ID/g | 0.8 ± 0.09 %ID/g | 0.35 ± 0.12 %ID/g | tissue uptake at 100 min (in vivo [3]; ex vivo biodistribution: gall bladder): 0.84 ± 0.29 %ID/g; tissue uptake at 100 min (in vivo [3]; ex vivo biodistribution: stomach): 0.69 ± 0.21 %ID/g
3 | N=C(N)NCCC[C@@H]1NC(=O)[C@H](CCCCNC(=O)CCOCCOCCOCCOCCNC(=O)CCC(=O)N2Cc3ccccc3-c3c(nnn3CCCO[C@@H]3O[C@H](CO)[C@@H](O[C@@H]4O[C@H](CO)[C@H](O)[C@H](OCc5ccc6ccccc6c5)[C@H]4O)[C@H](O)[C@H]3NC(=S)Nc3ccc(CNC(=O)CCC(C(=O)O)N4CCN(CC(=O)O)CCN(CC(=O)O)CCN(CC(=O)O)CC4)cc3)-c3ccccc32)NC(=O)[C@@H](Cc2ccccc2)NC(=O)[C@H](CC(=O)O)NC(=O)CNC1=O (stereo partly drawn) [[^68Ga]Ga-DOTAGA-LacN(NAP)-cRGDfK, metal not drawn] | 1.25 ± 0.18 SUV | 0.45 ± 0.11 | 3.43 ± 1.09 | 0.58 ± 0.14 %ID/g | 0.54 ± 0.21 %ID/g | 0.06 ± 0.01 %ID/g | 0.17 ± 0.13 %ID/g | 0.61 ± 0.17 %ID/g | 6.14 ± 1.14 %ID/g | 1.74 ± 0.7 %ID/g | 2.19 ± 0.73 %ID/g | 1.54 ± 0.62 %ID/g | 0.27 ± 0.07 %ID/g | 0.43 ± 0.12 %ID/g | 1.34 ± 0.5 %ID/g | 1.77 ± 0.96 %ID/g | 1.6 ± 1.17 %ID/g | 0.8 ± 0.23 %ID/g | tissue uptake at 100 min (in vivo [4]; accumulation in the gall bladder): 3.07 ± 2.1 %ID/g; tissue uptake at 100 min (in vivo [4]; accumulation in the intestines): ~1.7 %ID/g; tissue uptake at 100 min (in vivo [4]; accumulation in the stomach): 1.7 ± 0.71 %ID/g
